{"source": "patent US6900050", "about": "(ROCKEFELLER UNIVERSITY, dated 2005)", "binders": {"B1": {"name": "mutant TRIP lacking the N-terminal RING finger and the coiled-coil domain (residues 275-470) fused to the transcription activation domain (other, not shown: large carriers)", "chain": "PGNLEPASATNETVSRLVFESPAPVEMMNPRLHQPPFGDEIDLNTTFDVNTPPTQTSGSQHCLPKKLCLERARSPMQNVLKKVHKVSKPESQLSLGGQRCVGELDEELAGAFPLFIRNAVLGQKQPNRTTAESRSSTDVVRIGFDGLGGRTKFIQPRDTTIIRPVPVKSKAKSKQKVRIKTVSSASQPKLDTFLCQ"}, "B2": {"name": "HA epitope tagged-TRIP expressed in 293 cells (other, not shown: small tags and cut ends)", "chain": "MPILSLCTICSDFFDHSRDVAAIHCGHTFHLQCLIQWFETAPSRTCPQCRIQVGKKTIINKLFFDLAQEEENVLDAEFLKNELDSVKAQLSQKDREKRDSQAIIDTLRDTLEERNATVESLQNALNKAEMLCSTLKKQMKFLEQRQDETKQAREEAHRLKCKMKTMEQIELLLQSQRSEVEEMIRDMGVGQSAVEQLAVYCVSLKKEYENLKEARKATGELADRLKKDLVSSRSKLKTLNTELDQAKLELRSAQKDLQSADQEITSLRKKSDDPPGNLEPASATNETVSRLVFESPAPVEMMNPRLHQPPFGDEIDLNTTFDVNTPPTQTSGSQHCLPKKLCLERARSPMQNVLKKVHKVSKPESQLSLGGQRCVGELDEELAGAFPLFIRNAVLGQKQPNRTTAESRSSTDVVRIGFDGLGGRTKFIQPRDTTIIRPVPVKSKAKSKQKVRIKTVSSASQPKLDTFLCQ", "notes": "also called HA-TRIP"}}, "key": {"[1]": {"target": "T1, LexA DNA binding domain-TRAF1 fusion protein (bait plasmid pEG202-TRAF1) (UniProt P0A7C2 1-202; P39428 1-409)", "T1 construct": "also called LexA-TRAF1", "T1 sequence (looked up)": "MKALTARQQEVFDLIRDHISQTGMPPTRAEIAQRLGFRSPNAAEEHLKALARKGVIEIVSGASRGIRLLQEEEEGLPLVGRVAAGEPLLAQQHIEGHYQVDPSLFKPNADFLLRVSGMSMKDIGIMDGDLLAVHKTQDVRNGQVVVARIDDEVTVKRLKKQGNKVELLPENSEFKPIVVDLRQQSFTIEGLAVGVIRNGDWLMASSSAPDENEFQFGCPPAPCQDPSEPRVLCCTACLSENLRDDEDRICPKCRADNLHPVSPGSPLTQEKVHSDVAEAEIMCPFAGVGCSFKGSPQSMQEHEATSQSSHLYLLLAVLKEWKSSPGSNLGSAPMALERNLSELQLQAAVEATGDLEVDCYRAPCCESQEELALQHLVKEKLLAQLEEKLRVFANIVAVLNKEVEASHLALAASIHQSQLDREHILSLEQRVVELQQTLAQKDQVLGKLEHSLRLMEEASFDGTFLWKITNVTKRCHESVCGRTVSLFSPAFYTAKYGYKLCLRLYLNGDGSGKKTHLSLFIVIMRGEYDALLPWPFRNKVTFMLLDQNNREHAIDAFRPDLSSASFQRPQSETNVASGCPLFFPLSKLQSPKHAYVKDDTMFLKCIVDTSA", "experiment": "yeast two-hybrid, b-gal activity", "description": "(§1) The yeast two-hybrid assay was used to determine the structural requirements for the interaction of TRIP with TRAF1 or TRAF2. […] Expression vectors encoding wild type TRIP or the indicated deletion mutants of TRIP fused to the transcription activation domain were cotransformed into yeast with plasmids expressing LexA DNA binding domain-TRAF1 or -TRAF2 fusion proteins. Inter-actions between fusion proteins were scored by measuring b-gal activity of yeast transformants. The \"+\" indicates average b-gal activity of three independent yeast transformants was higher than 1000 Miller units; and the \"−\" indicates average b-gal activity of three independent yeast transformants was about 100 Miller units, which was similar to that of negative controls (bait plasmid alone)."}, "[2]": {"target": "T2, LexA DNA binding domain-TRAF2 fusion protein (UniProt P0A7C2 1-202; P39429 1-501)", "T2 construct": "also called LexA-TRAF2", "T2 sequence (looked up)": "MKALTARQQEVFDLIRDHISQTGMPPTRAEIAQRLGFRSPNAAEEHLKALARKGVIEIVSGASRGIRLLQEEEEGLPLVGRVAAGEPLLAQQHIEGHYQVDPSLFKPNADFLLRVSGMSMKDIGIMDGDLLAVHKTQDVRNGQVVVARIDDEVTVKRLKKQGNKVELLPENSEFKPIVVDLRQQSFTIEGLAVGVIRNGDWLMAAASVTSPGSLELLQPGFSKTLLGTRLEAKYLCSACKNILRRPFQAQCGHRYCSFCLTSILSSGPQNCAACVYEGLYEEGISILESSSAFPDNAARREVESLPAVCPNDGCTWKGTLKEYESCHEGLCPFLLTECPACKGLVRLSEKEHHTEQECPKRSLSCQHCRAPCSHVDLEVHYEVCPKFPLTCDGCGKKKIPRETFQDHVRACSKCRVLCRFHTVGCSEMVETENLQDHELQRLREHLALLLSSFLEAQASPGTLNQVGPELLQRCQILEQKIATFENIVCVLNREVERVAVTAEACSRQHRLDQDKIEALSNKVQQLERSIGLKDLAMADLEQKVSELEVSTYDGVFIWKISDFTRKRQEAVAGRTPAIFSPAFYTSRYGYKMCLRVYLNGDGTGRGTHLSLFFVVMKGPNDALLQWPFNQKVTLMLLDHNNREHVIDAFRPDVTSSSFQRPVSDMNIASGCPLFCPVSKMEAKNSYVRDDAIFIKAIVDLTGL", "experiment": "yeast two-hybrid, b-gal activity", "description": "as §1"}, "[3]": {"target": "T3, GST alone (control) (UniProt P08515 1-218 = GST)", "T3 construct": "Control for the glutathione-Sepharose coprecipitations; also called GST proteins", "T3 sequence (P08515 whole entry)": "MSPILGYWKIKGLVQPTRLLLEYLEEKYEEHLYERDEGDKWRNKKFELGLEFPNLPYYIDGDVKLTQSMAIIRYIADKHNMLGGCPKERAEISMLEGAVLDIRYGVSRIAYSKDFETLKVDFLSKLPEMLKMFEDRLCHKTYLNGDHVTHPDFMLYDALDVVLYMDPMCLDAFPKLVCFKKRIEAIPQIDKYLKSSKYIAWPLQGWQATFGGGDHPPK", "experiment": "glutathione-Sepharose coprecipitation from 293 cells, Western blot (control)", "procedure": "Cell lysates were precipitated with glutathione-Sepharose beads, and analyzed by Western blot analysis with anti-TRAF1 or anti-TRAF2 antibodies. The 293 cells were transfected with various combinations of expression vectors and thirty-six hours after transfection, cells were harvested in phosphate-buffered saline/1 mM phenylmethylsulfonyl fluoride, pelleted, and lysed in lysis buffer (20 mM Hepes (pH 7.9), 100 mM KCl, 300 mM NaCl, 10 mM EDTA, 0.1% NP-40, plus protease inhibitors). After lysis, aliquots of cell lysates were incubated with glutathione-Sepharose (Pharmacia) for 2 hr at 4° C. […]\nHowever, since the interaction of TRAFs with the cognate members of the TNFR superfamily is mediated through the TRAF-C domain rather than the entire TRAF domain, it was-important to determine whether TRIP can indirectly interact with the receptors through TRAFs. […] Cell lysates were precipitated with glutathione-Sepharose beads, and analyzed on Western blots with anti-HA, anti-TRAF1, and anti-TRAF2 antibodies. […]\nAliquots of cell lysates were subjected for purification with glutathione-Sepharose beads as described in Experimental Procedures. Proteins coprecipitated with GST-fusion proteins were analyzed by Western analysis with an anti-HA mAb (12CA5), and anti-TRAF1- or anti-TRAF2-polyclonal antibodies."}}}
{"binder": "B1", "values": [{"measurement": "binding result", "setting": "[1]", "result": "no binding"}, {"measurement": "binding result", "setting": "[2]", "result": "no binding"}]}
{"binder": "B2", "values": [{"measurement": "binding result", "setting": "[3]", "result": "no binding"}]}
